Results on 19 substances are retold here after patent US20240368668A1, “SUBSTRATES AND BIOMARKERS OF ADAMTS7” (The Broad Institute, Inc., priority 2021, published 2024).

Square brackets hold non-standard residues; d marks the D form. Ends that are not written are not given here. Met(O) = CS(=O)CC[C@H](N)C(=O)O

The assay concerns the target T1, mouse ADAMTS7 (Mus musculus, UniProt Q68SA9).
T1 construct: Full-length mouse Adamts7 1-1857 (Uniprot Q68SA9, WT or E373Q catalytic mutant); expressed in transfected cells; host or cells: Human Coronary Artery Smooth Muscle Cells (HCA-SMC, Lonza), adenovirus 50 MOI
T1 sequence (Q68SA9 221-1657): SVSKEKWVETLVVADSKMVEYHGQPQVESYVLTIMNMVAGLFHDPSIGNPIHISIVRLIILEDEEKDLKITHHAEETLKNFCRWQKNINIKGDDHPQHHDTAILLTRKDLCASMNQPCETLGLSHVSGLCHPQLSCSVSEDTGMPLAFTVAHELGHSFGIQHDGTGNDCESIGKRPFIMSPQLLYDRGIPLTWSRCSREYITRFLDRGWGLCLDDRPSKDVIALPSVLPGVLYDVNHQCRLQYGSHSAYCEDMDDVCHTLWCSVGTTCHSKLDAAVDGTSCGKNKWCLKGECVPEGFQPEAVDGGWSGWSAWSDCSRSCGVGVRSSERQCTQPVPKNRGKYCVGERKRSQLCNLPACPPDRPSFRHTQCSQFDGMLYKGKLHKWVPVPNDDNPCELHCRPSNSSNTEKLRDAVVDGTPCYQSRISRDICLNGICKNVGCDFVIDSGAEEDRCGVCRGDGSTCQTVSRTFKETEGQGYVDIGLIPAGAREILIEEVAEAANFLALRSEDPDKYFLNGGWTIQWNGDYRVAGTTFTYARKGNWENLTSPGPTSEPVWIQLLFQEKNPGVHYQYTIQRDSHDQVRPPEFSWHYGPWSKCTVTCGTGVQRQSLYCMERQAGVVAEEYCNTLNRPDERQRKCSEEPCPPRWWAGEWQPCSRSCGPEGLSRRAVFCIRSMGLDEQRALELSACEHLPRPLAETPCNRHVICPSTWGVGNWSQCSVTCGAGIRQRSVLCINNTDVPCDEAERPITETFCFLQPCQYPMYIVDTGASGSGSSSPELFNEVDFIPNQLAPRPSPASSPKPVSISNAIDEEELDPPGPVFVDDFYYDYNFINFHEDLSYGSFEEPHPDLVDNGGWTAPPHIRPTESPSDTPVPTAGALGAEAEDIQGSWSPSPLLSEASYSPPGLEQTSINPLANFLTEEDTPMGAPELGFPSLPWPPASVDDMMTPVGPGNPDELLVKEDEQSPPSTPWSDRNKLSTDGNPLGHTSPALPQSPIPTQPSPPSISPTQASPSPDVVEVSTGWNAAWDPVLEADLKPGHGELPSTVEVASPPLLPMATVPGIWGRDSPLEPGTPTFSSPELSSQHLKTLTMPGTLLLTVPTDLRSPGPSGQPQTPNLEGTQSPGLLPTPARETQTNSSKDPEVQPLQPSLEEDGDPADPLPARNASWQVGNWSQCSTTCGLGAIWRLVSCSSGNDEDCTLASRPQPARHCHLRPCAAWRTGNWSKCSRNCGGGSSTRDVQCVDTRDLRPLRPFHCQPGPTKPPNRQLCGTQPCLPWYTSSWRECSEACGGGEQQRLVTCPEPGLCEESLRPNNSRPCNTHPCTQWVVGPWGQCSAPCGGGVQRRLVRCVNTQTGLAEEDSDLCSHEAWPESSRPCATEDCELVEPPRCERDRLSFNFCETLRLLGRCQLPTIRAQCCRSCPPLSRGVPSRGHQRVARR
Briefly: TMT10 TAILS N-terminomics, HUVEC experiment (process replicates, trypsin/AspN digest). The format is cell-based, human. Particulars: HUVEC TAILS HC; log fold change of N-terminal peptide, Ad-mADAMTS7 WT over Luc. Summed up: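 Full-length mouse ADAMTS7 (WT or E373Q mutant, C-terminal 3xFLAG) or luciferase was transduced via adenovirus, 50 MOI, into HCA-SMC (SMC1, SMC2) or HUVEC. SMC1: pooled media, technical triplicates 400 ug; SMC2: process triplicates 300 ug; HUVEC: process triplicates 200 ug, bFGF2 10 ng/ml.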
“ASMT_321 (LSSAGFR; listed as Homo sapiens)” registered a logFC.mWT.over.Luc of 2.18.

“BICD1_280 (NNDDKMNGHIHGPLVKLNGDYR; listed as Homo sapiens)” came in with a logFC.mWT.over.Luc of 1.23. With “CLU_267 (FQHPPTEFIR; listed as Homo sapiens)”, the logFC.mWT.over.Luc turned out to be 1.56. The figure for “CTGF_173 (TVVGPALAAYR; listed as Homo sapiens)” is 2.94; for “CTGF_174 (VVGPALAAYR; listed as Homo sapiens)” it is 2.13; for “FN1_1624 (LVQTAVTTIPAPT; listed as Homo sapiens)” it is 1.40.

Regarding “FN1_1743 (WESPQGQVSR; listed as Homo sapiens)”, the logFC.mWT.over.Luc is recorded as 2.86. Take “LTBP2_129 (QQQPAPR; listed as Homo sapiens)”: the logFC.mWT.over.Luc stood at 4.83. The figure for “LTBP2_253 (GEGTLAR; listed as Homo sapiens)” is 2.90; for “LTBP3_164 (LSTGALPPLAPEG; listed as Homo sapiens)” it is 1.82. For the substance “LTBP3_205 (HAAFLVPLGPGQISA; listed as Homo sapiens)”, the logFC.mWT.over.Luc is reported as 2.41. The value for “LTBP3_221 (VQAPPPVVNVR; listed as Homo sapiens)” was 2.72. The figure for “MCFD2_55 (HLEGVINKPEA; listed as Homo sapiens)” is 1.13; for “PSAP_301 (LVEPIKKH; listed as Homo sapiens)” it is 2.38. The value for “PTBP1_376 (AAAAAGR; listed as Homo sapiens)” was 1.11; that for “PZP_578 (HAHLQVAAAPQSLCALR; listed as Homo sapiens)” was 2.11. As to “THBS1_630 (FGQGVEHATANK; listed as Homo sapiens)”, the logFC.mWT.over.Luc is on record as 2.27. The value for “UQCRH_76 (HGSPNNSERAMRAVGE[Met(O)]CKGPGAAR; listed as Homo sapiens)” was 1.39. The value for “ZYX_244 (PVSLANTQPR; listed as Homo sapiens)” was 1.20.
